The text below walks through data of patent US20170210812A1.

Experiment [1] has as its target EGFRvIII expressed on cells (human) (UniProt P00533). Briefly: cell-based or functional assay.
Experiment [2] deals with wild-type EGFR expressed on cells (human) (UniProt P00533). Briefly: cell-based or functional assay.

B1: h62G7-EQ/L6/CD3 biFc (bispecific antibody, part only; not given: anti-CD3 arm and Fc, V domains shown, part only)
VH: QVQLVQSGAEVKKPGASVKVSCKASGYTFTDYTLHWVRQAPGQGLEWMGGIWPITGGTTYNQKFKGRVTMTRDTSTSTVYMELSSLRSEDTAVYYCARGEAQGSWGQGTLVTVSS
VL: DVVMTQSPLSLPVTLGQPASISCKSSQSLLYSNGKTYLNWFQQRPGQSPRRLIYQVSKLDSGVPDRFSGSGSGTDFTLKISRVEAEDVGVYYCGQDTHFPLTFGGGTKVEIK
Take B1: in experiment [1], the percentage of live target cells, DKMG with activated T cells, 1 nM antibody was determined as 35% and the percentage of live target cells, LN18-EGFRvIII with activated T cells, 0.01 nM antibody was 20%. Also, the percentage of live target cells, parental LN18 with activated T cells, 0.01 nM antibody in experiment [2] was found to be 100%.

B2: 42G9/CD3 biFc (bispecific antibody, part only; not given: anti-CD3 arm and Fc, V domains shown, part only)
VH: QVTLKESGPVLLKPTETLTLTCTVSGFSLSNPRMGVSWIRQPPGKALEWFAHIFSTDEKSLKLSLRSRLTLSKDTSKSQVVLTMTNMAPVDSATYYCARDSSNYEGYFDFWGQGTLVTVSS
VL: EVVLTQSPATLSVSPGERATLSCRASQSVRSNLAWYQQKSGQAPRLLIYGSTIRATGVPARFSGSGSGTEFTLTISSLQSEDFAVYYCQQYSDWPFTFGPGTKVDIK
With B2, the percentage of live target cells, LN229-EGFRvIII with activated T cells, 0.01 nM antibody in experiment [1] stood at 35%. Further, the percentage of live target cells, parental LN229 with activated T cells, 0.01 nM antibody in experiment [2] stood at 100%.
